Measured values as given in patent US20230235058A1.
Each block holds one binder with its values, some of them ahead of it.

Experiments:
[1] = biological target: L48R (Mus musculus); assay: flow cytometry, GFP-positive transfected HEK-293T cells, fluorochrome-conjugated antibody at 10 ug/ml, Geo-mean relative to wild type
[2] = biological target: human BTLA extracellular region / murine CD28 construct with K41E, on HEK-293T cells (human; mouse) (UniProt P31041); assay: as above
[3] = biological target: human BTLA extracellular region / murine CD28 construct with Y39R, on HEK-293T cells (human; mouse) (UniProt P31041); assay: as above
Chain of human BTLA extracellular region / murine CD28 construct with Y39R, on HEK-293T cells (human; mouse) (P31041 other isoform, or with tags, fused parts or gaps Y39R Y39R): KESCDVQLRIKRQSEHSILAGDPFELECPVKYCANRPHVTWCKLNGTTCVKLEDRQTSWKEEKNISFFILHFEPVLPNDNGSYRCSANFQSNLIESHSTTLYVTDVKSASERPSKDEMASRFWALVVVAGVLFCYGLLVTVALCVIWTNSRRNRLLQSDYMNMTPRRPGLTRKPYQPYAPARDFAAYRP

[4] = biological target: full length human BTLA expressed on cells (human) (UniProt Q7Z6A9); assay: cell-based or functional assay

Chain of human BTLA extracellular region / murine CD28 construct with K41E, on HEK-293T cells (human; mouse) (P31041 other isoform, or with tags, fused parts or gaps K41E K41E): as the sequence (P31041 other isoform, or with tags, fused parts or gaps Y39R Y39R) above, with R9Y, K11E counted along it

binding as % of binding to wild-type BTLA [1]: 145% | binding as % of binding to wild-type BTLA [2]: 1.8% | binding as % of binding to wild-type BTLA [3]: 0.76%
B1: 11.5.1 (antibody, V domains shown)
VH: EVQLQESGPSLVKPSQTLSLTCSVTGDSITSAYWNWIRKFPGNKLEYMGYISYSGSTYFNPSLKSRISITRNTSKNQYYLQLNSVTTEDTATYYCARSHYYGYYFDYWGHGTTLTVSS
VL: DIVLTQSPASLAVSLGQRATISCRASETIDSYGDSLMHWYQQKAGQPPKLLIYRASNLESGIPARFSGSGSRTDFTLTINPVEADDVATYYCQQTDEDPYTFGGGTKLEIK

binding as % of binding to wild-type BTLA [1]: 102% | binding as % of binding to wild-type BTLA [2]: 91.4% | binding as % of binding to wild-type BTLA [3]: 60%
B2: 2.8.6 (antibody, V domains shown)
VH: QVQLKESGPGLVAPSQSLSITCTVSGFSLTTYGVHWVRQSPGKGLEWLGVMWPGGRTSYNPAPMSRLSISKDNSKSQVFLKMNSLQTDDTAMYYCVRGDYEYDYYAMDYWGQGTSVTVSS
VL: QIVLSQSPAILSASPGEKVTMTCRASSSVSYMHWYQQKPGSSPKPWIYATSNLASGVPARFSGSGSGTSYSLTISRMEAEDAATYYCHQWSSNPYTFGGGTKLEIK

inhibition of NFkB signal, IC50 [4]: 3.8 nM | maximal inhibition of NFkB signal [4]: 18%
B3: 22B3 hIgG4PAA (antibody, from another filing, V domains shown)
VH: QVQLVQSGAEVKKPGASVKVSCKASGFSLSSYGVSWVRQAPGQGLEWMGAISYDGITYYASWAKSRVTMTRDTSTSTVYMELSSLRSEDTAVYYCARGDYYDDYVYVYALDIWGQGTLVTVSS
VL: EIVLTQSPGTLSLSPGERATLSCQASQSISTALAWYQQKPGQAPRLLIYAASTLASGIPDRFSGSGSGTDFTLTISRLEPEDFAVYYCQQGYSSSNLDNVFGGGTKVEIKR
